Measurements reported in article PMC10381965.

Target: CBF1;CCAN (CENP-LN, CENP-OPQU+, CENP-HIK-TW, CENP-C) (Saccharomyces cerevisiae;Saccharomyces …, UniProt P17106;P38907;P38265;Q06675;Q02732;P53298;P38313;Q12493;Q06162;Q12262;Q12748;P47 …, |)
Test: cryo-EM structure (3.4 Å); free C0N3 DNA without octamer; topological entrapment, 25 bp contacted; Binding buffer for IK assembly not given in the material; proteins purified in 20 mM Hepes pH 8.0, 300 mM NaCl, 0.5 mM TCEP

B1: C0N3 153 bp (chimeric CEN3/W601) (dsDNA)
DNA 1: ATAAGTCACATGGTGCCGAGGCCGCTCAATTGGTCGTAGACAGCTCTAGCACCGCTTAAACGCACGTACGCGCTGTCCCCCGCGTTTTAATATTAGTGTATTTGATTTCCGAAAGTTAAAAAAGAAATAGTAAGAAATATATATTTCATTGAA
DNA 2: TTCAATGAAATATATATTTCTTACTATTTCTTTTTTAACTTTCGGAAATCAAATACACTAATATTAAAACGCGGGGGACAGCGCGTACGTGCGTTTAAGCGGTGCTAGAGCTGTCTACGACCAATTGAGCGGCCTCGGCACCATGTGACTTAT
binding result: binds
